Measured values: FireProtDB (doi:10.1016/0022-2836(92)90560-7)

Conditions: Bacillus amyloliquefaciens, 25 °C, Urea, Fluorescence, MES/Tris 150 mM/150 mM/, NaCl 1 M, whole UniProt chain shown

B1: Ribonuclease wild type, P00648 (protein)
chain: MMKMEGIALKKRLSWISVCLLVLVSAAGMLFSTAAKTETSSHKAHTEAQVINTFDGVADYLQTYHKLPDNYITKSEAQALGWVASKGNLADVAPGKSIGGDIFSNREGKLPGKSGRTWREADINYTSGFRNSDRILYSSDWLIYKTTDHYQTFTKIR
In the case of B1, the denaturant m value (pH 5.8) is reported as 1.95 kcal/mol/M, the “denaturant midpoint (higher = more stable)” value (pH 5.8) is reported as 5.62 M and the unfolding free energy (pH 5.8) is reported as 11 kcal/mol. For the same protein, the denaturant m value (pH 9) was 2.11 kcal/mol/M, the “denaturant midpoint (higher = more stable)” value (pH 9) was 4.8 M and the unfolding free energy (pH 9) was 9.41 kcal/mol.
